± gives the uncertainty stated by the source.
Experiment: protein stability index of a GFP-peptide fusion (yeast GPS) (PSI 1-4); higher = more stable; sorted into four equal gates, so the index is relative within each strain
Outline: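 Sequencing reads from sorted gates were used to score each peptide. The library consisted of tiled 17-residue yeast protein peptides fused downstream of GFP on a Cherry-expressing plasmid, pooled and carried in yeast. Mid-log cultures in leucine-free medium were split into four equal gates by GFP/Cherry ratio, and each gate's plasmids were PCR-amplified and Illumina-sequenced. The protein stability index adds up, over all gates, the read frequency multiplied by the gate number.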

KLAKNLQIGDVVERHLE [RPO31]
protein stability index (doa10∆): 3.25 ± 0.15 | protein stability index (pdr5∆): 3.49 ± 0.12 | protein stability index (san1∆): 3.31 ± 0.069 | protein stability index (ubr1∆): 3.2 ± 0.12

KLASTLEKISSSNKDLE [SMC4]
protein stability index (doa10∆): 3.09 ± 0.053 | protein stability index (pdr5∆): 2.68 ± 0.067 | protein stability index (san1∆): 2.96 ± 0.038 | protein stability index (ubr1∆): 2.82 ± 0.056

KLDIISDPESERPAIEF [RPN14]
protein stability index (doa10∆): 2.94 ± 0.045 | protein stability index (pdr5∆): 3.05 ± 0.05 | protein stability index (san1∆): 3.03 ± 0.04 | protein stability index (ubr1∆): 3.18 ± 0.039

KLDKQINMADRSLGLQQ [POP6]
protein stability index (doa10∆): 3.02 ± 0.12 | protein stability index (pdr5∆): 3.46 ± 0.21 | protein stability index (san1∆): 3.02 ± 0.16 | protein stability index (ubr1∆): 3.62 ± 0.26

KLDQDDEIYIPINGNEA [CSI1]
protein stability index (doa10∆): 3.24 ± 0.15 | protein stability index (pdr5∆): 3.46 ± 0.091 | protein stability index (san1∆): 3.19 ± 0.09 | protein stability index (ubr1∆): 3.45 ± 0.072

KLEKLRNEKRMFLEFQS [SMC2]
protein stability index (doa10∆): 2.88 ± 0.13 | protein stability index (pdr5∆): 3.3 ± 0.08 | protein stability index (san1∆): 3.15 ± 0.12 | protein stability index (ubr1∆): 3.49 ± 0.092

KLGIESKQPNSAIRKCV [RPS23A]
protein stability index (doa10∆): 3.21 ± 0.11 | protein stability index (pdr5∆): 3.25 ± 0.12 | protein stability index (san1∆): 3.02 ± 0.12 | protein stability index (ubr1∆): 3.41 ± 0.054

KLHEFYLLISKENKKRK [IRR1]
protein stability index (doa10∆): 2.96 ± 0.081 | protein stability index (pdr5∆): 2.65 ± 0.066 | protein stability index (san1∆): 2.89 ± 0.051 | protein stability index (ubr1∆): 3.04 ± 0.067

KLKECPFDMGGYFIING [RPB2]
protein stability index (doa10∆): 3 ± 0.078 | protein stability index (pdr5∆): 3.07 ± 0.082 | protein stability index (san1∆): 2.72 ± 0.073 | protein stability index (ubr1∆): 3.07 ± 0.051

KLKNNASRSQLEKGEIE [YJL039C/NUP192]
protein stability index (doa10∆): 3.18 ± 0.11 | protein stability index (pdr5∆): 2.98 ± 0.1 | protein stability index (san1∆): 2.66 ± 0.083 | protein stability index (ubr1∆): 3.08 ± 0.087

KLLAISKFNNADDVFTG [RPC31]
protein stability index (doa10∆): 3.03 ± 0.15 | protein stability index (pdr5∆): 2.9 ± 0.2 | protein stability index (san1∆): 2.92 ± 0.13 | protein stability index (ubr1∆): 2.57 ± 0.12

KLLAKELEEQESESERK [SMC2]
protein stability index (doa10∆): 2.71 ± 0.13 | protein stability index (pdr5∆): 3.23 ± 0.089 | protein stability index (san1∆): 2.46 ± 0.16 | protein stability index (ubr1∆): 3.14 ± 0.1

KLLNDLALENGEITKTE [NUT1]
protein stability index (doa10∆): 3.13 ± 0.15 | protein stability index (pdr5∆): 3.09 ± 0.22 | protein stability index (san1∆): 2.78 ± 0.2 | protein stability index (ubr1∆): 3.18 ± 0.086

KLLTPQDMEAAKEVYKI [GAL11]
protein stability index (doa10∆): 3.13 ± 0.14 | protein stability index (pdr5∆): 3.33 ± 0.14 | protein stability index (san1∆): 3.43 ± 0.084 | protein stability index (ubr1∆): 3.49 ± 0.11

KLNTFENDLLQEFDSEL [SMC3]
protein stability index (doa10∆): 3.22 ± 0.13 | protein stability index (pdr5∆): 3.3 ± 0.11 | protein stability index (san1∆): 3.03 ± 0.1 | protein stability index (ubr1∆): 2.78 ± 0.1

KLPKVYKRSIVRNYKPL [SWI1]
protein stability index (doa10∆): 2.8 ± 0.086 | protein stability index (pdr5∆): 2.99 ± 0.089 | protein stability index (san1∆): 2.89 ± 0.074 | protein stability index (ubr1∆): 2.96 ± 0.12

KLRSELGYKDTSVIQDL [BRR2]
protein stability index (doa10∆): 2.74 ± 0.13 | protein stability index (pdr5∆): 2.22 ± 0.083 | protein stability index (san1∆): 2.69 ± 0.072 | protein stability index (ubr1∆): 2.96 ± 0.083

KLSKVQLYEDLCRYEDT [MED4]
protein stability index (doa10∆): 2.88 ± 0.069 | protein stability index (pdr5∆): 3.29 ± 0.12 | protein stability index (san1∆): 3.32 ± 0.11 | protein stability index (ubr1∆): 3.21 ± 0.071

KLSSAENANADLENKFN [YIL149C/MLP2]
protein stability index (doa10∆): 3.06 ± 0.063 | protein stability index (pdr5∆): 3.31 ± 0.073 | protein stability index (san1∆): 3.07 ± 0.062 | protein stability index (ubr1∆): 3.1 ± 0.042

KLTVCFDDILKVGAEMM [MED2]
protein stability index (doa10∆): 1.97 ± 0.07 | protein stability index (pdr5∆): 1.95 ± 0.06 | protein stability index (san1∆): 1.89 ± 0.11 | protein stability index (ubr1∆): 2 ± 0.041

KLWAEIIVKILYYRPHI [GRR1]
protein stability index (doa10∆): 1.4 ± 0.064 | protein stability index (pdr5∆): 2.02 ± 0.071 | protein stability index (san1∆): 1.19 ± 0.15 | protein stability index (ubr1∆): 1.46 ± 0.073

KLYKTPIPIPAFADRLG [PRE10]
protein stability index (doa10∆): 1.5 ± 0.11 | protein stability index (pdr5∆): 1.29 ± 0.076 | protein stability index (san1∆): 1.04 ± 0.18 | protein stability index (ubr1∆): 1.46 ± 0.2

KMENLMRLIKRVRAESL [YJL039C/NUP192]
protein stability index (doa10∆): 1.49 ± 0.083 | protein stability index (pdr5∆): 1.19 ± 0.1 | protein stability index (san1∆): 1.32 ± 0.23 | protein stability index (ubr1∆): 1.12 ± 0.099

KMLKIWTMAFRTMDDIK [ECM29]
protein stability index (doa10∆): 2.03 ± 0.11 | protein stability index (pdr5∆): 1.76 ± 0.1 | protein stability index (san1∆): 2.06 ± 0.12 | protein stability index (ubr1∆): 1.96 ± 0.075

KMLMNLHKEQWQSGLKM [RPN11]
protein stability index (doa10∆): 2.14 ± 0.048 | protein stability index (pdr5∆): 2.05 ± 0.04 | protein stability index (san1∆): 2.4 ± 0.039 | protein stability index (ubr1∆): 2.13 ± 0.035

KNGALVSNILSAFKFIH [YJL039C/NUP192]
protein stability index (doa10∆): 1.71 ± 0.055 | protein stability index (pdr5∆): 1.65 ± 0.046 | protein stability index (san1∆): 1.51 ± 0.065 | protein stability index (ubr1∆): 1.3 ± 0.036

KNHTHNLPGNITVVLGV [RRP4]
protein stability index (doa10∆): 2.3 ± 0.14 | protein stability index (pdr5∆): 2.68 ± 0.084 | protein stability index (san1∆): 2.32 ± 0.17 | protein stability index (ubr1∆): 2.66 ± 0.078

KNLIQLISLKLLTFEVT [SRB8]
protein stability index (doa10∆): 1.28 ± 0.081 | protein stability index (pdr5∆): 1.19 ± 0.054 | protein stability index (san1∆): 1.24 ± 0.13 | protein stability index (ubr1∆): 1.1 ± 0.071

KNLVKVLESRVNARDIP [CSN12]
protein stability index (pdr5∆): 1.94 ± 0.19 | protein stability index (san1∆): 2.03 ± 0.2 | protein stability index (ubr1∆): 1.76 ± 0.16

KNNILGSNVLKSGKTIV [RRP43]
protein stability index (doa10∆): 3.05 ± 0.039 | protein stability index (pdr5∆): 3.11 ± 0.044 | protein stability index (san1∆): 3.04 ± 0.043 | protein stability index (ubr1∆): 3.076 ± 0.03

KNNLLIPDLSIQNDIYL [RPN12]
protein stability index (doa10∆): 2.93 ± 0.046 | protein stability index (pdr5∆): 3.02 ± 0.038 | protein stability index (san1∆): 2.98 ± 0.035 | protein stability index (ubr1∆): 2.92 ± 0.047

KNPRVTKEYLVQNLRSW [CSN9]
protein stability index (pdr5∆): 3 ± 0.3 | protein stability index (san1∆): 3.16 ± 0.11 | protein stability index (ubr1∆): 3.36 ± 0.091

KNTQSPQTPLVEPVTER [SNU114]
protein stability index (pdr5∆): 2.87 ± 0.15 | protein stability index (san1∆): 2.72 ± 0.097 | protein stability index (ubr1∆): 3.01 ± 0.13

KNYPEYFLKVTFLKYFG [IRR1]
protein stability index (doa10∆): 1.33 ± 0.085 | protein stability index (pdr5∆): 1.54 ± 0.052 | protein stability index (san1∆): 1.22 ± 0.14 | protein stability index (ubr1∆): 1.49 ± 0.046

KPALKVSKEGLYQLVDI [YMR129W/POM152]
protein stability index (doa10∆): 3.18 ± 0.13 | protein stability index (pdr5∆): 3.1 ± 0.12 | protein stability index (san1∆): 3.14 ± 0.074 | protein stability index (ubr1∆): 3.02 ± 0.082

KPGQNNRQQKKRRFDPS [RRP6]
protein stability index (doa10∆): 2.78 ± 0.089 | protein stability index (pdr5∆): 2.99 ± 0.11 | protein stability index (san1∆): 3.21 ± 0.13 | protein stability index (ubr1∆): 2.56 ± 0.08

KPGSKPEKTSTELVDGR [SIR3]
protein stability index (doa10∆): 3.16 ± 0.13 | protein stability index (pdr5∆): 2.86 ± 0.16 | protein stability index (san1∆): 3.26 ± 0.089 | protein stability index (ubr1∆): 3.27 ± 0.14

KPGSTVMLLGTPDANLI [UBP6]
protein stability index (pdr5∆): 3.58 ± 0.24 | protein stability index (ubr1∆): 3.38 ± 0.12

KPLFDFGKTGDQKETKK [YOR098C/NUP1]
protein stability index (doa10∆): 3.3 ± 0.12 | protein stability index (pdr5∆): 3.6 ± 0.19 | protein stability index (san1∆): 2.79 ± 0.22 | protein stability index (ubr1∆): 3.34 ± 0.082

KPMTAYARADTHFLLNI [RRP6]
protein stability index (doa10∆): 2.26 ± 0.05 | protein stability index (pdr5∆): 2.17 ± 0.047 | protein stability index (san1∆): 2.34 ± 0.06 | protein stability index (ubr1∆): 1.87 ± 0.046

KPQLKFKSPIDNSESHP [RRP6]
protein stability index (doa10∆): 2.77 ± 0.083 | protein stability index (pdr5∆): 3.06 ± 0.06 | protein stability index (san1∆): 2.89 ± 0.084 | protein stability index (ubr1∆): 3.12 ± 0.034

KPSFSFPGKPVDVQAPT [YOR098C/NUP1]
protein stability index (doa10∆): 2.72 ± 0.056 | protein stability index (pdr5∆): 2.88 ± 0.094 | protein stability index (san1∆): 3.12 ± 0.055 | protein stability index (ubr1∆): 2.77 ± 0.068

KPTSHKQLQQPKSSPLK [SIR4]
protein stability index (doa10∆): 2.87 ± 0.057 | protein stability index (pdr5∆): 3 ± 0.058 | protein stability index (san1∆): 3.04 ± 0.039 | protein stability index (ubr1∆): 2.95 ± 0.032

KQERSKQERLKENEESL [PRP28]
protein stability index (doa10∆): 3.21 ± 0.2 | protein stability index (pdr5∆): 3.62 ± 0.17 | protein stability index (san1∆): 3.22 ± 0.13 | protein stability index (ubr1∆): 3.31 ± 0.11

KQFDSIFNSNKAKIIPG [SIR4]
protein stability index (doa10∆): 2.32 ± 0.046 | protein stability index (pdr5∆): 2.33 ± 0.047 | protein stability index (san1∆): 2.69 ± 0.064 | protein stability index (ubr1∆): 2.65 ± 0.041

KQQDAEELFTQLFHSMS [UBP6]
protein stability index (doa10∆): 3.25 ± 0.059 | protein stability index (pdr5∆): 3.31 ± 0.088 | protein stability index (san1∆): 3.03 ± 0.088 | protein stability index (ubr1∆): 3.14 ± 0.061

KQTGRDQMVVGWYHSHP [RPN11]
protein stability index (doa10∆): 2.4 ± 0.12 | protein stability index (pdr5∆): 1.97 ± 0.096 | protein stability index (san1∆): 2.4 ± 0.15 | protein stability index (ubr1∆): 1.53 ± 0.096

KQVLLRLNPYAKVFAAE [RPL4A]
protein stability index (doa10∆): 2.12 ± 0.067 | protein stability index (pdr5∆): 2.6 ± 0.11 | protein stability index (ubr1∆): 2.42 ± 0.074

KQVQISHHLKADTIDHD [YGL172W/NUP49]
protein stability index (doa10∆): 2.91 ± 0.067 | protein stability index (pdr5∆): 3.09 ± 0.053 | protein stability index (san1∆): 2.79 ± 0.065 | protein stability index (ubr1∆): 2.92 ± 0.043

KRAEKKAKERLQALKAN [SNF2]
protein stability index (doa10∆): 2.72 ± 0.12 | protein stability index (pdr5∆): 2.6 ± 0.15 | protein stability index (san1∆): 1.73 ± 0.12 | protein stability index (ubr1∆): 1.3 ± 0.048

KREEKAMTIYWDDHTKK [CDC53]
protein stability index (doa10∆): 2.5 ± 0.076 | protein stability index (pdr5∆): 2.2 ± 0.068 | protein stability index (san1∆): 3.45 ± 0.072 | protein stability index (ubr1∆): 2.25 ± 0.051

KRFMNTSQNPQRDAEIS [BRR2]
protein stability index (doa10∆): 3.04 ± 0.076 | protein stability index (pdr5∆): 3.03 ± 0.085 | protein stability index (san1∆): 3.12 ± 0.1 | protein stability index (ubr1∆): 2.95 ± 0.059

KRGVKGVEYRLRLRISR [RPL31A]
protein stability index (doa10∆): 1.64 ± 0.12 | protein stability index (pdr5∆): 1.36 ± 0.12 | protein stability index (ubr1∆): 1.78 ± 0.19

Reference: the supplement of paper PMC9732359
